Measurements published in patent publication US20210363241A1 (Eli Lilly, published 2021).

Key:
[1] = target: T1, Human CD226 on the cell surface of stably transfected HEK 293 cells (human, UniProt Q15762 19-336); assay: flow cytometry on HEK 293 cells expressing human CD226, antibody at 0.14 ug/mL
T1 construct: also called hCD226; DNAM-1
T1 sequence: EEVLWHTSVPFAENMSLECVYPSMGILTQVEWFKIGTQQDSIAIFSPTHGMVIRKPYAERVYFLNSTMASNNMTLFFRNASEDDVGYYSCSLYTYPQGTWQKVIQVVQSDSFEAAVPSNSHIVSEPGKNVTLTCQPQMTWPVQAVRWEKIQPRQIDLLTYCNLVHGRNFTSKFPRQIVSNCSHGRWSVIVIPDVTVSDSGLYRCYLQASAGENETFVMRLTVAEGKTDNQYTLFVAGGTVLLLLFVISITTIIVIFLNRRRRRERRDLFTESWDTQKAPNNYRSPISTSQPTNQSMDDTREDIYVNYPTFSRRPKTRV
Method: (§1) The ability of the antibodies disclosed herein to bind to cell surface Human CD226 can be measured using a flow cytometric assay. Human CD226 expressing stable cells are generated by transfecting human-CD226 plasmid DNA into human HEK 293 cells (ATCC) using Fugene-6 reagent (Promega) according to the manufacturer's protocol. Stable cells are selected using 0.5 μg/mL puromycin in Dulbecoo's Modified Eagle's Medium containing 10% fetal bovine serum and 1% GlutaMAX™. For flow cytometry, confluent adherent cells are detached using Gibco® Cell Dissociation Buffer (Life Technologies), washed with complete media, then resuspend in FACS buffer (phosphate buffered saline containing 2.5% fetal bovine serum+1 mM EDTA) and then transferred into a 96 well V bottom plate at a density of 5×10⁴ cells/well. […]
(§2) After washing in FACS buffer, secondary antibody allophycocyanin (APC) conjugated goat anti-human IgG, F(ab′)2 fragment specific antibody (Jackson ImmunoResearch Laboratories) is added at a 1:200 dilution and cells are incubated at room temperature for 30 minutes. […] Flow cytometry data is analyzed using FlowJo® Software. Median fluorescence intensity (MFI) ratio is calculated as the (MFI of Experimental antibody)/(MFI of the control IgG).

[2] = target: T2, Recombinant human CD226-Fc fusion protein (R&D Systems) (human); assay: SPR (Biacore T200), human CD226-Fc amine-coupled to chip, antibody injected at 1.95-1000 nM, 25 C, steady state fit
T2 construct: The reagent was bought from R&D Systems; also called Human CD226-ECD-Fc; Human CD226-Extracellular Domain-Fc
Method: A Biacore T200 instrument can be used to measure the kinetics of immobilized human CD226-Fc binding to Antibody 1. Recombinant human CD226-Fc fusion protein (R&D Systems) is covalently immobilized to a CMS sensor chip via amine coupling (GE Healthcare). CD226 antibody testing is performed at a flow rate of 100 μL/min in HBS-EP+buffer. Samples are injected at various concentrations and measurements obtained at 25° C. The surface is regenerated after each sample injection with 10 mM Glycine-HCl pH 2.1 at flow rate of 10 μL/min for 30 seconds and then stabilized with buffer for 10 seconds. Sensorgrams of concentrations ranging from 1.95 nM to 1000 nM are evaluated using Biacore T200 software. The equilibrium dissociation constant (KD) or binding affinity constant is calculated from steady state fit. In experiments performed essentially as described above, Antibody 1 binds to human CD226 with the affinity constants illustrated in Table 2.

[3] = target: T1, Human CD226 on the cell surface of …; assay: cell-based or functional assay
[4] = target: T2, Recombinant human CD226-Fc fusion …; assay: ELISA, plate coated with human CD226-Fc, anti-human F(ab')2-HRP detection
Method: The ability of the antibodies disclosed herein to bind human CD226 can be measured by ELISA. To measure binding to human CD226, a 96-well plate (Immulon 2HB) is coated with human CD226-Fc (R&D Systems) overnight at 4° C. Wells are blocked for 2 h with blocking buffer (PBS containing 1% bovine serum albumin). Wells are washed three times with PBS containing 0.1% Tween-20. Antibody 1 or control IgG (100 μL) is then added at different concentrations and incubated at room temperature for 1 h. After washing, the plate is incubated with 100 μL of goat anti-human IgG F(ab′)2-HRP conjugate (Jackson Immuno Research Laboratories) at room temperature for 45 minutes. The plates are washed and then incubated with 100 μL of 3,3′, 5,5′-tetra-methylbenzidine. The absorbance at 450 nm is read on a SpectraMax® microplate reader. The half maximal effective concentration (EC50) is calculated using GraphPad Prism 7 software.

[5] = target: T3, Cynomolgus monkey CD226 on the cell surface of stably transfected HEK 293 cells (cynomolgus monkey, UniProt A0A2K5W1Z6 19-336); assay: flow cytometry on HEK 293 cells expressing cynomolgus CD226, antibody at 0.14 ug/mL
T3 construct: whole, on cells; also called Cyno-CD226
T3 sequence: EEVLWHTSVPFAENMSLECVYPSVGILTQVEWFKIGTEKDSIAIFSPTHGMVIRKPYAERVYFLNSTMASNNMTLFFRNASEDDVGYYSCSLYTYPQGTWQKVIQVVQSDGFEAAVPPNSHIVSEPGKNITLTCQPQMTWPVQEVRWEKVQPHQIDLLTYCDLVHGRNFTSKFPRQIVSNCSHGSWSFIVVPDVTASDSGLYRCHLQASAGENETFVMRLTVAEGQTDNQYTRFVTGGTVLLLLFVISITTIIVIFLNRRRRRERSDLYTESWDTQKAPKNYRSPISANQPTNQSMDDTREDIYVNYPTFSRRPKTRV
Method: as §1, with “surface cynomolgus monkey” for “surface Human”, “assay. Cynomolgus monkey” for “assay. Human”, “transfecting Cyno-CD226” for “transfecting human-CD226”
as §2

B1: Antibody 1 (antibody, human IgG1, kappa, V domains shown)
VH: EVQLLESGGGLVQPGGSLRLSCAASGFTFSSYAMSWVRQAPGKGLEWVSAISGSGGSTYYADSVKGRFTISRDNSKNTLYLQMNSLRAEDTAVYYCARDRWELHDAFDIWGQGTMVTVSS
VL: VIWMTQSPSSLSASVGDRVTITCRASQSISSYLNWYQQKPGKAPRLLIYRASTLQSGVPSRFSGDGSGTHFTLTISSLQPEDFATYYCQQSYSTPDTFGQGTKVEIKR
notes: also called anti-human CD226 agonist antibody; human anti-human CD226 IgG1-effector null (IgG1-EN) antibody
MFI ratio (MFI of antibody / MFI of control IgG) [1]: 851 | Kd [2]: 334 nM | NF-kB luciferase reporter EC50 [3]: 4.11 nM | EC50 [4]: 0.1 nM | MFI ratio (MFI of antibody / MFI of control IgG) [5]: 2920
